Measured values as given in patent US20230090901A1 (GAMMADELTA THERAPEUTICS, published 2023).

Key:
[1] = biological target: L3 (DV1-GV8), soluble leucine zipper γδ TCR heterodimer of a delta variable 1 chain and a gamma variable 8 … (human); assay: DELFIA ELISA, coated antigen;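 also: binding of antibody supernatants or protein-A purified antibodies to plate-coated antigen (3 µg/ml recombinant TCR or BSA), 1 h incubation at room temperature, DELFIA readout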
Protocol: (§1) A DELFIA ELISA binding method was also employed to assess binding of antibody supernatants or further protein-A purified antibody. In brief, MaxiSorp plates were coated with 3 μg/ml of antigen BSA or L1 (DV1-GV4), L2 (DV1-GV2), L3 (DV1-GV8), or L4 (DV2-GV4) recombinant TCR antigen. Plates were then washed with PBS, blocked with PBS/skimmed milk and then test article added and incubated for 1 hour at room temperature.

[2] = biological target: L2 (DV1-GV2), soluble leucine zipper γδ TCR heterodimer of a delta variable 1 chain and a gamma variable 2 … (human); assay: DELFIA ELISA, coated antigen;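 also: binding of antibody supernatants or protein-A purified antibodies to plate-coated antigen (3 µg/ml recombinant TCR or BSA), 1 h incubation at room temperature, DELFIA readout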
Protocol: as §1

[3] = biological target: T1, L1 (DV1-GV4), soluble leucine zipper γδ TCR heterodimer of a delta variable 1 chain and a gamma variable 4 … (human); assay: DELFIA ELISA, coated antigen;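 also: binding of antibody supernatants or protein-A purified antibodies to plate-coated antigen (3 µg/ml recombinant TCR or BSA), 1 h incubation at room temperature, DELFIA readout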
T1 construct: also called bt-L1; not shown: histidine tag/linker said to follow the zipper

[4] = biological target: T2, BSA (bovine, UniProt P02769); assay: DELFIA ELISA, coated antigen;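 also: binding of antibody supernatants or protein-A purified antibodies to plate-coated antigen (3 µg/ml recombinant TCR or BSA), 1 h incubation at room temperature, DELFIA readout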
T2 construct: coated at 3 µg/ml; also called bovine serum albumin, control antigen of the DELFIA ELISA
Protocol: as §1

[5] = biological target: T1, L1 (DV1-GV4), soluble leucine zipper γδ …; assay: SPR (Reichert 4SPR), L1 coupled to chip, IgG1 flowed, steady state 1:1 fit; average
Protocol: (§2) In brief, the binding affinity of the antibodies to target (i.e. the human Vγ4 chain of a γδ TCR) was established by SPR analysis using a Reichert 4SPR instrument (Reichert Technologies). […] All experiments were performed at room temperature, with the samples kept at 4° C. before flowing over the chip. Steady state fitting was determined according to Langmuir 1:1 binding using software TraceDrawer (Reichert Technologies).

[6] = biological target: T1, L1 (DV1-GV4), soluble leucine zipper γδ …; assay: SPR (Reichert 4SPR), L1 coupled to chip, IgG1 flowed, steady state 1:1 fit; experiment 2
Protocol: as §2

[7] = biological target: T1, L1 (DV1-GV4), soluble leucine zipper γδ …; assay: SPR (Reichert 4SPR), L1 coupled to chip, IgG1 flowed, steady state 1:1 fit; experiment 1
Protocol: as §2

Chain of L2 (DV1-GV2), soluble leucine zipper γδ TCR heterodimer of a delta variable 1 chain and a gamma variable 2 … (human) (chain, as listed by the source mutant, chain 1 of 2): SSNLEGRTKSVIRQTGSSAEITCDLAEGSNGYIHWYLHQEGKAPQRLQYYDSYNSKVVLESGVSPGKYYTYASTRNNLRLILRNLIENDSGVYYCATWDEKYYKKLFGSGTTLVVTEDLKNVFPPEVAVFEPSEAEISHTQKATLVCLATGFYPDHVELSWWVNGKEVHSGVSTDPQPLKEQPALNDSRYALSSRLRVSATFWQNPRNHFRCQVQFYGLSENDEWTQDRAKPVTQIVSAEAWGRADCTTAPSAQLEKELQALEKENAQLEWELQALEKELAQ
Chain of L2 (DV1-GV2), soluble leucine zipper γδ TCR heterodimer of a delta variable 1 chain and a gamma variable 2 … (human) (chain, as listed by the source mutant, chain 2 of 2): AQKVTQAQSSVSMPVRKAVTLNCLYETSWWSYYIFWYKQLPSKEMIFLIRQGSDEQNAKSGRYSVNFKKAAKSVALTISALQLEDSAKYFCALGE
Chain of L3 (DV1-GV8), soluble leucine zipper γδ TCR heterodimer of a delta variable 1 chain and a gamma variable 8 … (human) (chain, as listed by the source mutant, chain 1 of 2): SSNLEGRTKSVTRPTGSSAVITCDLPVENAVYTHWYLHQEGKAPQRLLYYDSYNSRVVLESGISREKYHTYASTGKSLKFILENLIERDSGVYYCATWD
Chain of L3 (DV1-GV8), soluble leucine zipper γδ TCR heterodimer of a delta variable 1 chain and a gamma variable 8 … (human) (chain, as listed by the source mutant, chain 2 of 2): as the sequence (chain, as listed by the source mutant, chain 2 of 2) above
T2 sequence (P02769 25-607 limits assumed): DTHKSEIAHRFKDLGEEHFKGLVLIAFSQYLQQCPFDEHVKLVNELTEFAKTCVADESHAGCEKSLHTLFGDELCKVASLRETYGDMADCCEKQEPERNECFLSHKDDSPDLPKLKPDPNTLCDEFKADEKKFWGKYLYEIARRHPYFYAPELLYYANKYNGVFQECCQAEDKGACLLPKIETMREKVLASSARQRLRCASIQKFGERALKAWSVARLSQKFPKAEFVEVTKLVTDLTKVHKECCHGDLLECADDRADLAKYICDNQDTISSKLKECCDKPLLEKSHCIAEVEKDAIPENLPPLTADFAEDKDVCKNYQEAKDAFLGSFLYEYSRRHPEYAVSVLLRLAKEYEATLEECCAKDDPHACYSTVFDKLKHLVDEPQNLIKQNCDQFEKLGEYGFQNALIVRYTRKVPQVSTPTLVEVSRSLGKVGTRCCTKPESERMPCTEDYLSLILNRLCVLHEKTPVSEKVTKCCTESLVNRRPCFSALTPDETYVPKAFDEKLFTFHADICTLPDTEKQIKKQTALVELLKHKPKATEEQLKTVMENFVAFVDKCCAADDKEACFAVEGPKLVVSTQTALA
T1 sequence (main, as listed by the source, chain 1 of 2): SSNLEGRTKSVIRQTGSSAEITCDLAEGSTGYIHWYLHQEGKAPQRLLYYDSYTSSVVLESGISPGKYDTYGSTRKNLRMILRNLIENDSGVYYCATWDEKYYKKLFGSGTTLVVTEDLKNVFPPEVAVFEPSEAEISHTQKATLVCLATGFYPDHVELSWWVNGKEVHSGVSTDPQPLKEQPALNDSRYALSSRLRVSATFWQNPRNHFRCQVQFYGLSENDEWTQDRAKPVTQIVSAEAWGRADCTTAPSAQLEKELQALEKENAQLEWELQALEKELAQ
T1 sequence (main, as listed by the source, chain 2 of 2): as the sequence (chain, as listed by the source mutant, chain 2 of 2) above

Binder	DELFIA ELISA response (FU) [1]	DELFIA ELISA response (FU) [2]	DELFIA ELISA response (FU) [3]	DELFIA ELISA response (FU) [4]	binding result [4]	Kd [5]	Kd [6]	Kd [7]
G4_13 (antibody, human IgG1, V domains shown, also called clone G4_13) VH: QVQLVESGAEVKKPGGSLRLSCAASGFTFSSYSMNWVRQAPGKGLEWVSSISGTSSYIYYADSVKGRFTISRDNAKNSLYLQMSSLRAEDTAVYYCARGGLGMVDPWGQGTLVTVSS VL: SNFMLTQPHSVSESPGKTVTISCTRSSGSIASNYVQWYQQRPGSSPSTVIYEDNQRPSGVPDRFSGSIDSSSNSASLTISGLRTEDEADYYCQSYDSSIYVVFGGGTKLTVLG	270 FU	94 FU	196000 FU	78 FU	no binding			
G4_14 (antibody, human IgG1, V domains shown, also called clone G4_14) VH: EVQLVQSGAEVKKPGESLRISCKGSGYSFTSYWISWVRQMPGKGLEWMGRIDPSDSYTNYSPSFPGHVTISADKSISTAYLQWSSLKASDTAMYYCAADTAHGMDVWGRGTLVTVSS VL: SNFMLTQPHSVSESPGKTVTISCTRSRGSIAGNYVHWYQQRPGRAPTTVIYRDKERPSGVPDRISGSIDSSSNSASLTISGLKTEDEADYYCQSYDSSTHVVFGGGTKLTVLG	229 FU	199 FU	208000 FU	135 FU	no binding			
G4_15 (antibody, human IgG1, V domains shown, also called clone G4_15) VH: EVQLVQSEAEVKKPGASVKVSCKASGYTFTRHYMHWVRQAPGQGLEWMGLINPSGSSTVYAQKFQGRVTLTRDTSTSTDYMELSSLRSEDTAVYYCARDNSHLDQVWWFDPWGQGTLVTVSS VL: SQSALTQPASVSGSPGQSITISCTGTSSDVGGYNYVSWYQQHPGKAPKLMIYDVSNRPSGVSNRFSGSKSGNTASLTISGLQAEDEADYYCSSYGSGSVFGTGTKLTVLG	156 FU	844 FU	119000 FU	63 FU	no binding			
G4_16 (antibody, human IgG1, V domains shown, also called 1248_P02_D10; clone G4_16) VH: EVQLLESGAEVKKPGASVKVSCKASGYTFTSYGISWVRQAPGQGLEWMGWISAYNGNTNYAQKLQGRVTMTTDTSTSTAYMELRSLRSDDTAVYYCARDYGDFYGMDVWGQGTLVTVSS VL: SQSVLTQPPSASGSPGQSVTFSCTGTSSDIGAFNSVSWYQQHPGKAPKLLIYEITKRPSGVPDRFSGSKSGNTASLTISVLQAEDEADYYCTSYAGSNTLIFGGGTKVTVLG	118 FU	84 FU	178000 FU	69 FU	no binding			
G4_19 (antibody, human IgG1, V domains shown, also called clone G4_19) VH: EVQLVQSGAEVKKPGASVKVSCKASGYTLTSYYMHWVRQAPGQGLEWMGIINPSGGSTSYAQKFQGRVTMTRDTSTSTVYMELSSLRSEDTAVYYCARERGYSYGDGMDVWGQGTTVTVSS VL: SNFMLTQPHSVSESPGKTVTISCTRSSGSIASNYVQWYQQRPGSPPITLIYDDDQRPSGVPHRFSGSIDTSSNPASLTISGLKTEDEADYYCQSYDSSNHVVFGGGTKLTVLG	192 FU	73 FU	142000 FU	55 FU	no binding			
G4_22 (antibody, human IgG1, V domains shown, also called clone G4_22) VH: QVQLVESGGGLVQPGGSLRLSCAASGFTFSTYAMSWVRQAPGKGLEWVSTVSGSGGTTYYADSVKGRFTISRDNSKNTLYLQMNSLRAEDTAVYYCAKDSTAVTDWFDPWGRGTLVTVSS VL: DIQMTQSPSSLSASVGDRVTITCQASQDISNYLNWYQQKPGKAPKLLIYAASSLQSGVPSRFSVSGSGTDFTLTISNLQPEDFATYYCQQSYSIPWTFGQGTKVEIKR	980 FU	567 FU	109000 FU	47 FU	no binding			
G4_24 (antibody, human IgG1, V domains shown, also called clone G4_24) VH: QVQLQQSGPGLVKPSQTLSLTCAISGASVSSNSVAWNWIRQSPSRGLEWLGRTYYRSRWYNDYALSVKSRIIINPDTSKNQFSLQLNSVTPEDTAVYYCARDWSSTRSFDYWGRGTLVTVSS VL: not shown	960 FU	534 FU	154000 FU	53 FU	no binding			
G4_25 (antibody, human IgG1, V domains shown, also called clone G4_25) VH: EVQLVESGAEVKKPGSSVKVSCKASGGTFSSYAISWVRQAPGQGLEWMGGIIPIFGTANYAQKFQGRVTITADKSTSTAYMELSSLRSEDTAVYYCARSLRDGYNYIGSLGYWGQGTLVTVSS VL: SQSALTQPRSVSGSPGQSVTISCTGTSSDVGGYNYVSWYQQHPGKAPKLMIYEVSNRPSGVSNRFSGSKSGNTASLTISGLQAEDEADYYCSSYGSGSVFGTGTKLTVLG	885 FU	486 FU	21700 FU	40 FU	no binding			
G4_26 (antibody, human IgG1, V domains shown, also called clone G4_26) VH: QVQLVQSGAEVKKPGSSVKVSCKASGGTFSSYAISWVRQAPGQGLEWMGGIIPIFGTANYAQKFQGRVTITADESTSTAYMELSSLRSEDTAVYYCASSRGSGWFPLGYWGQGTLVTVSS VL: SQSGLTQPASVSGSPGQSITISCTGTSSDVGSYNLVSWYQQHPGKAPKLMIYEVSKRPSGVSNRFSGSKSGNTASLTISGLQAEDEADYYCSSFGSGSIFGTGTKLTVLG	870 FU	680 FU	22800 FU	51 FU	no binding			
G4_28 (antibody, human IgG1, V domains shown, also called clone G4_28) VH: QVQLVESGGGLVQPGGSLRLSCAASGFTFDDYAMHWVRQAPGKGLEWVSGISAGGGSTNYAGSVKGRFTVSRDTSKNTLYLQMNSLRAEDTAVYYCVKSYVDTAMRYYYYYMDVWGQGTMVTVSS VL: SSYELTQDPAVSVALGQTVTITCQGDSLRNYYASWYRQKPGQTPVLVVYGKNNRPSGIPDRFSVSASGNTASLTITGAQAEDEGDYYCNSRDSSGVVFGGGTKVTVLG	984 FU	576 FU	227000 FU	65 FU	no binding			
G4_1 (antibody, human IgG1, V domains shown, also called clone G4_1) VH: EVQLLESGGGVVQPGRPLRLSCAASGFTFSSYSMNWVRQAPGKGLEWVSSISSSSSYIYYADSVKGRFTISRDNSKNTLYLQMNSLRAEDTAVYYCAKGHWYFDLWGRGTLVTVSS VL: DIQMTQSPSSLSASVGDRVTITCQASQDISNYLNWYQQKPGKAPKLLIYDASNLETGVPSRFSGSGSGTDFTLTISSLQPEDFATYYCQQSYSTPVTFGPGTKVEIKR	244 FU	100 FU	202000 FU	78 FU	no binding			
G4_2 (antibody, human IgG1, V domains shown, also called clone G4_2) VH: QMQLVQSGAEVKKPGATVKISCKVSGYPFTDYYIHWVQQAPGKGLEWMGLVDPEDGQSRSAERFQGRVTITADTSTDTAYMELSSLRSEDTAVYYCATFPVAGFYGMDVWGQGTLVTVSS VL: DIQMTQSPSSLSASVGDRVTITCQASQDISNYLNWYQQKPGKAPKLLIYAASSLQSGVPSRFSGSGSGTDFTLTISGLQPEDFATYYCLEDYNYLWTFGQGTKLEIKR	270 FU	86 FU	201000 FU	56 FU	no binding			
G4_3 (antibody, human IgG1, V domains shown, also called 1139_P01_A04; G4_03) VH: EVQLVESGGGLVQPGGSLRLSCAASGFTFSSYSMNWVRQAPGKGLEWVSSISSSSSYIYYADSVKGRFTISRDNSKNTLYLQMNSLRAEDTAVYYCARGGWLYDYWGQGTLVTVSS VL: DIQMTQSPSSLSASVGDRVTITCQASQDISNYLNWYQQKPGKAPKLLIYDASNLETGVPSRFSGSGSGTDFTLTISSLQPEDFATYFCQQSYSTPQTFGQGTKVDIKR	239 FU	216 FU	213000 FU	88 FU	no binding	2.86 nM	2.03 nM	3.69 nM
G4_4 (antibody, human IgG1, V domains shown, also called clone G4_4) VH: QVQLVESGGGLVQPGGSLRLSCAASGFTFSSYAMSWVRQAPGKGLEWVSAISGSGGSTYYADSVKGRFTISRDNSKNTLYLQMSSLRVEDTAVYYCAKSSVGWWSFDYWGQGTMVTVSS VL: not shown	190 FU	90 FU						
G4_5 (antibody, V domains shown, also called clone G4_5) VH: EVQLVQSGAEVKKPGSSVKVSCKASGYTFTSYGISWVRQAPGQGLEWMGWIGAYNGNTNYAQKLQGRVTMSTDTSTSTAYMELRSPRSDDTAVYYCARGGTGGDHVFAYWGQGTTVTVSS VL: not shown			163000 FU	86 FU	no binding			
G4_10 (antibody, human IgG1, V domains shown, also called clone G4_10) VH: QVQLVESGGGVVQPGRPLRLSCAASGFTFSSYAMHWVRQAPGKGLEWVSAISGSGGSTYYADSVKGRFTISRDNSKNTLYLQMNSLRAEDTAVYYCAKDGAVDFWRNGMDVWGRGTLVTVSS VL: DIVMTQPPLSLPVTLGHPASISCKSSQSLEYSDGNTYLNWFQQRPGQSPRRLIYKVSNRDSGAPDRFSGSGSGTDFTLEISRVEAEDVGVYYCMQGTLWPPTFGQGTKVDIKR	187 FU	109 FU	145000 FU	57 FU	no binding			
